Experimental data reported in patent US20150018530A1.
pEC50, pIC50: −log10 of the molar value.

Tests used:
[1] = biological target: EGF receptor on A431 cells (UniProt P00533); test: flow cytometry on A431 cells; concentration of mAb108 used in the competition assay
[2] = biological target: EGF receptor on A431 cells (UniProt P00533); test: Flow cytometry binding curve of the Fab on A431 cells (binding conditions 'as described previously'); y axis Median rises from about 20 to about 790
[3] = biological target: EGF receptor on A431 cells (UniProt P00533); test: competition flow cytometry on A431 cells; scFv pre-bound, mAb108 at 7.5 nM as competitor, APC anti-mouse detection
[4] = biological target: EGF receptor on A431 cells (UniProt P00533); test: Competition flow cytometry on A431 cells: cells incubated with the scFv at varied concentration and washed, then mAb108 at 7.5 nM, detected with APC-labelled anti-mouse antibody; y axis Median
[5] = biological target: EGF receptor on A431 cells (UniProt P00533); test: flow cytometry on A431 cells; binding conditions 'as described previously' (competition with mAb108)

Sequence of wild type scFv-108 (periplasmic) (scFv): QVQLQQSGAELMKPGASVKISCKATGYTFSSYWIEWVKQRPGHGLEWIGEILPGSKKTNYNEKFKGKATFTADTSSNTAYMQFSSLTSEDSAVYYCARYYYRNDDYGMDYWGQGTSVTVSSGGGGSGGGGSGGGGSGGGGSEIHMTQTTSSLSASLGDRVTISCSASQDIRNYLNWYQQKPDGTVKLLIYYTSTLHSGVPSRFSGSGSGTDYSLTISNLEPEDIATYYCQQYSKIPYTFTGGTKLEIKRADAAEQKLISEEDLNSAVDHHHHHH

Substance	IC50 relative to the wild type scFv [3] [x]	also measured
EGFR-specific monoclonal antibody mAb108 (ATCC #HB 9764)	–	EC80 [1]: 7.5 nM
Fab-108 Thr204 pAF (from UniProt P01834 1-107)	–	pEC50 [2]: 8.21
scFv-108 His144pAF	2.6	–
scFv-108 Leu156pAF	1.8	–
scFv-108 Ser131pAF	1.3	–
scFv-108 Ser136pAF	1.6	pIC50 [4]: 7.88
scFv-108 Ser136pAF-5K PEG	6.3	pIC50 [4]: 7.29
scFv-108 Ser193pAF	1.8	–
wild type Fab-108 (from UniProt P01834 1-107)	–	pEC50 [5]: 8.52
wild type scFv-108 (periplasmic)	–	pIC50 [3]: 8.09
